Measurements taken from patent publication US20250263470A1 (AstraZeneca / MedImmune, published 2025).

Target: HA of influenza B virus B/Florida/4/2006 (yamagata) (influenza B virus B/Florida/4/2006)
Assay: cell-based or functional assay

B1: FBD-56 (antibody, V domains shown)
VH: EVQLVESGGHLVQPGRSLRLSCAASGFTFEDYAMNWVRQAPGKGLEWVSVISWDSGRIGYADSVKGRFTISRDNAKNSSYLQMNSLRPEDTALYYCVRDMLAYYSDNSGKKYNVYGMDVWGQGTTVTVSS
VL: EIVLTQSPATLSLSPGERATLSCRASQSVSTFLAWYQQKPGQAPRLLMYDASNRATGIPARFSGSGSGTDFTLTISSLEPEDFAIYYCQQRSHWPPIFGQGTRLEIK
  Neutralization (Ave IC50 ug/ml): 0.013 µg/mL

B2: FBD-94 (antibody, V domains shown)
VH: EVQLVESGGGLVQPGRSLRLSCAVSGFIFEDYAINWVRQAPGKGLEWVSIISWDSGRIGYADSVRGRFTISRDNAKNSSFLQMNSLRPEDTAVYYCVKDMLAYYYDGSGIRYNLYGMDVWGQGTTVTVSS
VL: EIVLTQSPATLSLSPGERATLSCRASRSITTFLAWYQQKPGQAPRLLIYDASNRATGVPARFSGSGSGTDFTLTINSLEPDDFAIYYCQQRDHWPPIFGQGTRLEIK
  Neutralization (Ave IC50 ug/ml): 0.016 µg/mL

B3: FBC-39 (antibody, V domains shown)
VH: EVQLVVSGGGLVKPGGSLRLSCAASGLSFLNAWMSWVRQAPGKGLEWVGRIKSNTDGGTTDYAAPVKGRFSISRDDSKNMLFLHMSSLRTEDTAVYYCATDGPYSDDFRSGYAARYRYFGMDVWGQGTTVTVSS
VL: DIQMTQSPSSVSASVGDRVTITCRASQDISTWLAWYQQKPGKAPKLLIYAASSLQSGVPSRFSGSGSGTDFTLTISSLQPEDFATYFCQQANSFPPTFGQGTKLEIK
  Neutralization (Ave IC50 ug/ml): 0.046 µg/mL

B4: FBC-39 FSL (antibody, V domains shown)
VH: EVQLVESGGGLVKPGGSLRLSCAASGFSFLNAWMSWVRQAPGKGLEWVGRIKSNTDGGTTDYAAPVKGRFTISRDDSKNTLYLQMSSLKTEDTAVYYCTTDGPYSDDFRSGYAARYRYFGMDVWGQGTTVTVSS
VL: DIQMTQSPSSVSASVGDRVTITCRASQDISTWLAWYQQKPGKAPKLLIYAASSLQSGVPSRFSGSGSGTDFTLTISSLQPEDFATYYCQQANSFPPTFGQGTKLEIK
  Neutralization (Ave IC50 ug/ml): 0.017 µg/mL

B5: FBC-39 FTL (antibody, V domains shown)
VH: EVQLVESGGGLVKPGGSLRLSCAASGFTFLNAWMSWVRQAPGKGLEWVGRIKSNTDGGTTDYAAPVKGRFTISRDDSKNTLYLQMSSLKTEDTAVYYCTTDGPYSDDFRSGYAARYRYFGMDVWGQGTTVTVSS
VL: DIQMTQSPSSVSASVGDRVTITCRASQDISTWLAWYQQKPGKAPKLLIYAASSLQSGVPSRFSGSGSGTDFTLTISSLQPEDFATYYCQQANSFPPTFGQGTKLEIK
  Neutralization (Ave IC50 ug/ml): 0.014 µg/mL

B6: FBC-39 LTL (antibody, V domains shown)
VH: EVQLVESGGGLVKPGGSLRLSCAASGLTFLNAWMSWVRQAPGKGLEWVGRIKSNTDGGTTDYAAPVKGRFTISRDDSKNTLYLQMSSLKTEDTAVYYCTTDGPYSDDFRSGYAARYRYFGMDVWGQGTTVTVSS
VL: DIQMTQSPSSVSASVGDRVTITCRASQDISTWLAWYQQKPGKAPKLLIYAASSLQSGVPSRFSGSGSGTDFTLTISSLQPEDFATYYCQQANSFPPTFGQGTKLEIK
  Neutralization (Ave IC50 ug/ml): 0.023 µg/mL

B7: FBC-39 LSL (antibody, V domains shown)
VH: EVQLVESGGGLVKPGGSLRLSCAASGLSFLNAWMSWVRQAPGKGLEWVGRIKSNTDGGTTDYAAPVKGRFTISRDDSKNTLYLQMSSLKTEDTAVYYCTTDGPYSDDFRSGYAARYRYFGMDVWGQGTTVTVSS
VL: DIQMTQSPSSVSASVGDRVTITCRASQDISTWLAWYQQKPGKAPKLLIYAASSLQSGVPSRFSGSGSGTDFTLTISSLQPEDFATYYCQQANSFPPTFGQGTKLEIK
  Neutralization (Ave IC50 ug/ml): 0.016 µg/mL
